From paper PMC8497992, “Structural and functional characterization explains loss of dNTPase activity of the cancer-specific R366C/H mutant SAMHD1 proteins” (The Journal of Biological Chemistry, 2021) come the findings set out here.

This data set deals with the molecule itself. Kind of data set: crystal structure; HD domain (113-626) H206R/D207N constructs, 4 mg/ml, with 4 mM dGTP; microbatch under oil; 100 mM succinic acid-phosphate-glycine buffer, 30% PEG1500; tetramer.

B1: SAMHD1 (113-626) H206R/D207N/R366C (domain or fragment, UniProt Q9Y3Z3 113-626, looked up)
chain: DTMKVINDPIHGHIELHPLLVRIIDTPQFQRLRYIKQLGGGYYVFPGASHNRFEHSLGVGYLAGCLVHALGEKQPELQISERDVLCVQIAGLCRNLGHGPFSHMFDGRFIPLARPEVKWTHEQGSVMMFEHLINSNGIKPVMEQYGLIPEEDICFIKEQIVGPLESPVEDSLWPYKGRPENKSFLYEIVSNKRNGIDVDKWDYFARDCHHLGIQNNFDYKRFIKFARVCEVDNELRICARDKEVGNLYDMFHTCNSLHRRAYQHKVGNIIDTMITDAFLKADDYIEITGAGGKKYRISTAIDDMEAYTKLTDNIFLEILYSTDPKLKDAREILKQIEYRNLFKYVGETQPTGQIKIKREDYESLPKEVASAKPKVLLDVKLKAEDFIVDVINMDYGMQEKNPIDHVSFYCKTAPNRAIRITKNQVSQLLPEKFAEQLIRVYCKKVDRKSLYAARQYFVQWCADRNFTKPQDGDVIAPLITPQKKEWNDSTSVQNPTRLREASKSRVQLFKDDPM
notes: Crystallised with 4 mM dGTP; also called R366C (crystal construct); SAMHD1 HD/RN R366C
Consider B1, for which the “stoichiometry N” value amounted to 4.

B2: SAMHD1 (113-626) H206R/D207N/R366H (domain or fragment, UniProt Q9Y3Z3 113-626, looked up)
chain: DTMKVINDPIHGHIELHPLLVRIIDTPQFQRLRYIKQLGGGYYVFPGASHNRFEHSLGVGYLAGCLVHALGEKQPELQISERDVLCVQIAGLCRNLGHGPFSHMFDGRFIPLARPEVKWTHEQGSVMMFEHLINSNGIKPVMEQYGLIPEEDICFIKEQIVGPLESPVEDSLWPYKGRPENKSFLYEIVSNKRNGIDVDKWDYFARDCHHLGIQNNFDYKRFIKFARVCEVDNELRICARDKEVGNLYDMFHTHNSLHRRAYQHKVGNIIDTMITDAFLKADDYIEITGAGGKKYRISTAIDDMEAYTKLTDNIFLEILYSTDPKLKDAREILKQIEYRNLFKYVGETQPTGQIKIKREDYESLPKEVASAKPKVLLDVKLKAEDFIVDVINMDYGMQEKNPIDHVSFYCKTAPNRAIRITKNQVSQLLPEKFAEQLIRVYCKKVDRKSLYAARQYFVQWCADRNFTKPQDGDVIAPLITPQKKEWNDSTSVQNPTRLREASKSRVQLFKDDPM
notes: Crystallised with 4 mM dGTP; also called R366H (crystal construct); SAMHD1 HD/RN R366H
Turning to B2, the “stoichiometry N” value turned out to be 4.

Broadly, the stoichiometry N is the number of molecules, sites or subunits per partner or assembly.
